Data taken from patent publication US20160215299, “EXPRESSION METHOD OF ACTIVE GOLDFISH TGF2 TRANSPOSON RECOMBINANT TRANSPOSASE PROTEIN” (Shanghai Ocean University, published 2016).

Key:
[1] = test system: T1, gfTP1 transposase (Tgf2 transposase, 686 aa, recombinant 720 aa) (Carassius auratus); assay: cell_activity; details: genomic integration rate in one-year-old blunt snout bream (35/77) vs 10% with donor plasmid only; 8-bp direct repeats at insertion sites
T1 sequence: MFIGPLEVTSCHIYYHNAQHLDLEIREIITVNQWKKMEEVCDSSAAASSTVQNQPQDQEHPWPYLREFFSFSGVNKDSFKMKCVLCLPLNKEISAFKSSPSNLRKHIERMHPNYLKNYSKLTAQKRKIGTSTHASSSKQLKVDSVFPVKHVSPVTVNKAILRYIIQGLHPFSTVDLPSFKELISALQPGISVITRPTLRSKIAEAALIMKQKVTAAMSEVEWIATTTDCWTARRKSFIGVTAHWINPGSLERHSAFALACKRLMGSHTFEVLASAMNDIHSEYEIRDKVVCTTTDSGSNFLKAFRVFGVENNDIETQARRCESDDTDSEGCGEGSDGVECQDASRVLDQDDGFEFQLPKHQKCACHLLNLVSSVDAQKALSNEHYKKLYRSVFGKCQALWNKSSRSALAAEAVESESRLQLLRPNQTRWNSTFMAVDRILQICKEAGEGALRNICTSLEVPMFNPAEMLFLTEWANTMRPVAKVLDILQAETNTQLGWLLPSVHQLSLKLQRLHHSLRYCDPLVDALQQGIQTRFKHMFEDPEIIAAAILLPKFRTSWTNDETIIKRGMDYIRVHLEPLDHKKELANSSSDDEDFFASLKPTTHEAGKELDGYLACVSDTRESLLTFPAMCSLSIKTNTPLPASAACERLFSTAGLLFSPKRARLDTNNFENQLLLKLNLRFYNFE

[2] = target: T2, gfTP1 transposase (Tgf2 transposase, 686 aa, recombinant 720 aa) (Carassius auratus); assay: EMSA; 25 C, 0.5-1 h; 1x protein shifts probe, 10x gives slower complex (oligomer); control cold probe no signal; details: tags: N-terminal 34 aa His6-containing tag from pET-28a, E. coli Rosetta 1(DE3); label: biotin
T2 chain: T1 sequence
Experimental: The 50 by sequences of left and right ends of goldfish Tgf2 transposon labeled by biotin were used as probes. The DNA binding activity was verified by EMSA, using non-denaturing polyacrylamide gel electrophoresis at 80 V for 1.0 h. Lane 1: biotin-labeled probes based on left (or right) end; Lane 2: the supernatant of cells without IPTG induction; Lane 3: co-incubation complex of biotin-labeled cold probes for control and the purified recombinant goldfish gfTP1 transposase; Lane 4: co-incubation complex of biotin-labeled probes based on Tgf2 left (or right) end and the purified 1× recombinant goldfish gfTP1 transposase; Lane 5: co-incubation complex of biotin-labeled probes based on Tgf2 left (or right) end and the purified 10× recombinant goldfish gfTP1 transposase.

Molecule: donor plasmid pTgf2-zfβ-actin-eGFP
- activity [1]: 45%

B1: Tgf2 right end 50 bp probe (dsDNA)
DNA 1: CAGAGGTGTAAAAGTACTAAAAATATTTACTAAAGTGAAAGTACAAGTAT
DNA 2: ATACTTGTACTTTCACTTTAGTAAATATTTTTAGTACTTTTACACCTCTG
- binding result [2]: binds

B2: Tgf2 left end 50 bp probe (dsDNA)
DNA 1: CAGAGGTGTAAAAGTACTTAAGTAATTTTACTTGATTACTGTACTTAAGT
DNA 2: ACTTAAGTACAGTAATCAAGTAAAATTACTTAAGTACTTTTACACCTCTG
- binding result [2]: binds
